This is an account of results in patent US20210340516A1, “COMPOSITIONS CONTAINING ARGINASE 1 FOR THE TREATMENT OF NEUROVASCULAR AND RETINAL VASCULAR DISORDERS” (Augusta University Research Institute, Inc., priority 2020, published 2021).

Series [1] is described as follows: MCAO stroke model: PEG-A1 penetration into the brain (Western blot). It counts as in vivo, mouse. The settings on record: 60 minutes MCAO, 24 hours after stroke, perfused. On the procedure:
Western blotting: Western blotting on retina or brain was conducted as described in Fouda, A Y, et al., Cell death & Disease, 9:1001 (2018). Membranes were probed with anti-PEG (RevMAb Biosciences, 1:1000) and anti-albumin (Bethyl Laboratories, 1:5000). Uncropped blots are included in FIG. 22.
MCAO model: C57BL/6J mice (12-16 week-old male, 25-30 g) were subjected to middle cerebral artery occlusion (MCAO) using the intraluminal filament technique (Docol 602145) for 60-minutes followed by reperfusion as described in Eldahshan, et al., American Journal of Physiology Heart and Circulatory Physiology, 316:H1192-h201 (2019). […] A heating pad was used to maintain body temperature at 37° C. […] Sham surgery involved all the regular surgery steps except the filament insertion. Mice were deeply anesthetized at 24 hours and sacrificed by trans-cardial perfusion with PBS then brains were collected and sectioned for triphenyl tetrazolium chloride (TTC) staining or homogenized in RIPA lysis buffer for western blotting.
PEG-A1 treatment in acute retinal and brain injury mouse models: A pharmaceutical grade of PEG-A1 was provided as a kind gift from Bio-Cancer Treatment International Limited (BCT, Hong Kong). […] Methoxy polyethylene glycol propionic acid (MW 5,000—Sigma, Catalog number 88908-1G-F) was used as vehicle control. […]

In series [2] the test system is retinal explants. Briefly: Ex vivo retinal explants subjected to OGD/R, NeuN flat-mount staining. Type of series: cell-based, mouse. The note with it: 3 hours OGD/21 hours reoxygenation, treated at reoxygenation; untreated 55%, PEG only 48%. From the text:
Evaluation of retinal neurodegeneration: Retina flat-mounts and explants were immunolabeled for the neuronal marker, NeuN (Millipore), as previously described in Shosha, et al., Cell death & disease, 7:e2483-e (2016). Images were collected and analyzed in a blinded fashion using a semi-automated method. Four images per retina flat-mount were taken as Z-stacks in the mid-periphery of each retina petal using an inverted confocal microscope (LSM 780; Carl Zeiss). Three images were taken per explant. NeuN-positive cells were quantified using ImageJ software ‘Batch processing’ function. A prerecorded ImageJ macro code (FIG. 23A-23C) was used for batch processing. The macro was validated every time it was used to make sure it is compatible with the set of images being analyzed. Results from three to four images were averaged to represent neuron density for each retina. Results are presented as % of sham retina or control explant under normoxic conditions. […]
The retinal IR model was mimicked by subjecting retinal explants to oxygen-glucose deprivation/reperfusion (OGD/R) ex vivo (FIG. 19A). An OGD time-response experiment established 3 hours of OGD/21 hours of reoxygenation to be optimal for studying retinal neurodegeneration ex vivo with about 60% neuronal survival as measured by NeuN flat-mount staining (FIG. 19B-19E, 19F).

For series [3], the system named is bone marrow-derived macrophages (BMDMs). Briefly: PEG-A1 intracellular uptake by bone marrow-derived macrophages (anti-PEG Western blot). It counts as cell-based, mouse. The note with it: BMDMs treated overnight, washed with PBS. On the procedure:
BMDMs: Bone marrow-derived macrophages (BMDMs) were freshly isolated from WT mice and differentiated in culture as described in Fouda, A Y, et al., Cell death & Disease, 9:1001 (2018). To determine PEG-A1 intracellular uptake by macrophages, BMDMs were treated overnight with PEG-A1 or vehicle and then washed several times with phosphate buffered saline (PBS) before collection in RIPA buffer for Western blotting.
Previous studies have shown that myeloid specific A1 deletion using the LysM cre mice leads to increased neurodegeneration in the retinal IR model (Fouda, A Y, et al., Cell death & Disease, 9:1001 (2018)). […] To test the effect of possible neuronal A1 deletion on the previously reported IR outcome in these mice, control and myeloid-specific A1 KO retina explants were subjected to OGD/R (3 hours/21 hours) (FIG. 21A). The explant model excludes any effects due to infiltrating myeloid cells. […] To further test if macrophage can incorporate PEG-A1, BMDMs were treated with PEG-A1 or vehicle overnight and then washed with PBS several times before Western blotting.

The conditions of series [4]: previously reported (De Santo 2018); cited from earlier work.
Series [5] deals with primary rat retinal mixed neurons. Briefly: Primary retinal mixed neurons subjected to OGD/R, LDH release assay. The note with it: 6 hours OGD and 18 hours reperfusion, PEG-A1 1 μg/mL at reoxygenation.
Protocol: Retinas from ten pups were collected and washed twice with ice-cold 1×PBS. They were digested with 0.5% trypsin for 3-4 min at 37° C., followed by trypsin inactivation with the culture medium, DMEM/F12 (Gibco, Grand Island, N.Y.) plus 10% FBS and 1% Penicillin-Streptomycin (P/S) solution (Invitrogen, Grand Island, N.Y.). The retina tissue was mechanically dissociated by pipetting several times until cells were dispersed. Cells were then filtered through a 40 μm nylon-mesh filter, collected by centrifugation at 1000 rpm for 10 min, re-suspended in culture medium, and plated in 6 or 12 well-cell culture plates (Corning, Corning, N.Y.) coated with Poly-D-lysine hydrobromide (PDL, Sigma) at a density of 0.5×10^6 cells/mL. The plates were maintained in a humidified CO2 incubator at 37° C. and 5% CO2. At days 1, 2, and 3 in vitro (DIV), half of the medium was aspirated and replaced with Neurobasal A medium containing 1×B-27 (GIBCO), 1× glutaMAX (GIBCO) and 1% P/S. Experiments were conducted at DIV 6.

B1: PEG-A1: recombinant human arginase (rhArg) covalently attached to methoxy polyethylene glycol (mPEG-SPA; MW 5,000) via succinamide propionic acid (SPA) linker (protein, UniProt P05089 1-322, looked up)
Arginase-1: MSAKSRTIGIIGAPFSKGQPRGGVEEGPTVLRKAGLLEKLKEQECDVKDYGDLPFADIPNDSPFQIVKNPRSVGKASEQLAGKVAEVKKNGRISLVLGGDHSLAIGSISGHARVHPDLGVIWVDAHTDINTPLTTTSGNLHGQPVSFLLKELKGKIPDVPGFSWVTPCISAKDIVYIGLRDVDPGEHYILKTLGIKYFSMTEVDRLGIGKVMEETLSYLLGRKKRPIHLSFDVDGLDPSFTPATGTPVVGGLTYREGLYITEEIYKTGLLSGLDIMEVNPSLGKTPEEVTRTVNTAVAITLACFGLAREGNHKPIDYLNPPK
modifications: mPEG-SPA 5 kDa conjugate
notes: recombinant human arginase (rhArg) covalently attached to methoxy polyethylene glycol (mPEG-SPA; MW 5,000) via succinamide propionic acid (SPA) linker
Turning to B1, the “anti-PEG immunoreactivity in stroked brains (Western blot, also anti-A1)” value in series [1] is on record as “strong band”. Besides, the “neuronal survival of retina explants (NeuN)” value in series [2] is listed as 73%. In series [3], the “anti-PEG band in macrophage cell lysate (intracellular uptake)” value is “strong band”. Moreover, in series [4], the CNS penetration result is listed as “poor CNS penetration”. For the same molecule, in series [5], the “cell death (LDH release)” value is given as “increased cell death”.
